B1: AK002276: putative transmembrane protein stably expressed in MB114 cells by retroviral transduction (protein, listed as Mus musculus)
chain: MASRESGGSRAAALLLVLGVERSLALPKICTLCPGGMHNLSRVAAYCEDTSKLMQARCCLNQKGPILGLNLQNCSLKDPGPNFLQAYTAIIIDLQANPLKDDLANTFRGFTQLQTLILPQDVPCPGGSNAWDNVTSFKDKQICQGQRDLCNSTGSPEMCPENGSCASDGPGLLQCVCADGFHGYKCMRQGSFSLLMFFGILGSTTLAISILLWGTQRRKAKAS
B2: CRELD-2: secretory protein stably expressed in MB114 cells by retroviral transduction (protein, UniProt Q9CYA0 23-350, looked up)
Protein disulfide isomerase …: SRKPTMCQRCRTLVDKFNQGMANTARKNFGGGNTAWEEKTLSKYEFSEIRLLEIMEGLCDSSDFECNQLLEQQEEQLEAWWQTLKKEHPNLFEWFCVHTLKACCLPGTYGPDCQECQGGSERPCSGNGYCSGDGSRQGDGSCQCHTGYKGPLCIDCTDGFFSLQRNETHSICSACDESCKTCSGPSNKDCIQCEVGWARVEDACVDVDECAAETSPCSDGQYCENVNGSYTCEDCDSTCVGCTGKGPANCKECIAGYTKESGQCTDIDECSLEEKACKRKNENCYNVPGSFVCVCPEGFEETEDACVQTAEGKVTEENPTQPPSREDL
B3: matrillin-2: secretory protein stably expressed in MB114 cells by retroviral transduction (protein, UniProt O08746 24-956, looked up)
Matrilin-2: RERPQARFPSRGRHVRMYPQTALLESSCENKRADLVFIIDSSRSVNTYDYAKVKEFILDILQFLDIGPDVTRVGLLQYGSTVKNEFSLKTFKRKSEVERAVKRMRHLSTGTMTGLAIQYALNIAFSEAEGARPLRENVPRIIMIVTDGRPQDSVAEVAAKARNTGILIFAIGVGQVDLNTLKAIGSEPHKDHVFLVANFSQIESLTSVFQNKLCTVHMCSVLEHNCAHFCLNTPGSYICKCKQGYILSTDQKTCRIQDLCATEDHGCEQLCVNMLGSFVCQCYSGYTLAEDGKRCTAVDYCASENHGCEHECVNAESSYLCRCHEGFALNSDKKTCSKIDYCASSNHGCQHECVNAQTSALCRCLKGFMLNPDRKTCRRINYCALNKPGCEHECVNTEEGHYCRCRQGYNLDPNGKTCSRVDHCAQQDHGCEQLCLNTEESFVCQCSEGFLINDDLKTCSRADYCLLSNHGCEYSCVNTDKSFACQCPEGHVLRSDGKTCAKLDSCALGDHGCEHSCVSSEDSFVCQCFEGYILRDDGKTCRRKDVCQDVNHGCEHLCVNSGESYVCKCLEGFRLAEDGKRCRRKNVCKSTQHGCEHMCVNNGNSYLCRCSEGFVLAEDGKHCKRCTEGPIDLVFVIDGSKSLGEENFETVKHFVTGIIDSLAVSPKAARVGLLQYSTQVRTEFTLRGFSSAKEMKKAVTHMKYMGKGSMTGLALKHMFERSFTQVEGARPPSTQVPRVAIVFTDGRAQDDVSEWASKAKANGITMYAVGVGKAIEEELQEIASEPIDKHLFYAEDFSTMGEISEKLKEGICEALEDSGGRQDSAAWDLPQQAHQPTEPEPVTIKIKDLLSCSNFAVQHRFLFEEDNLSRSTQKLFHSTKSSGNPLEESQDQCKCENLILFQNVANEEVRKLTQRLEEMTQRMEALENRLKYR
B4: ECM-1: secretory glycoprotein stably expressed in MB114 cells by retroviral transduction (protein, UniProt Q61508 20-559, looked up)
Extracellular matrix protein 1: ASEGAFKASDQREMTPERLFQHLHEVGYAAPPSPPQTRRLRVDHSVTSLHDPPLFEEQREVQPPSSPEDIPVYEEDWPTFLNPNVDKAGPAVPQEAIPLQKEQPPPQVHIEQKEIDPPAQPQEEIVQKEVKPHTLAGQLPPEPRTWNPARHCQQGRRGVWGHRLDGFPPGRPSPDNLKQICLPERQHVIYGPWNLPQTGYSHLSRQGETLNVLETGYSRCCRCRSDTNRLDCLKLVWEDAMTQFCEAEFSVKTRPHLCCRLRGEERFSCFQKEAPRPDYLLRPCPVHQNGMSSGPQLPFPPGLPTPDNVKNICLLRRFRAVPRNLPATDAIQRQLQALTRLETEFQRCCRQGHNHTCTWKAWEGTLDGYCERELAIKTHPHSCCHYPPSPARDECFAHLAPYPNYDRDILTLDLSRVTPNLMGQLCGSGRVLSKHKQIPGLIQNMTIRCCELPYPEQACCGEEEKLAFIENLCGPRRNSWKDPALCCDLSPEDKQINCFNTNYLRNVALVAGDTGNATGLGEQGPTRGTDANPAPGSKEE

Legend:
Type in all cases: cell-based, murine
MB114 cells [1] = test: angiogenic sprouting in rat tail collagen matrices; conditions: 5 days; for angiogenic sprouting of quiescent MB114 cell monolayers: MB114 cells stably expressing the transgene vs GFP, 10% FBS
Method: (§1) The effect putative angiogenic agents had on MB114 cell activities were determined as follows: (i) cell proliferation using a [^3H]thymidine incorporation assay as described (Albig et al, 2006; Albig and Schiemann, 2004; Albig and Schiemann, 2005); (ii) cell invasion through Matrigel matrices using a modified Boyden-chamber assay as described (Albig et al, 2006; Albig and Schiemann, 2004; Albig and Schiemann, 2005); (iii) p38 MAPK phosphorylation using immunoblot analyses as described (Albig et al, 2006; Albig and Schiemann, 2004; Albig and Schiemann, 2005); (iv) angiogenic sprouting in rat tail collagen matrices as described (Albig et al, 2006; Albig and Schiemann, 2004); and (v) Hes1- and SBE-driven luciferase reporter gene assays as described (Albig et al, 2006; Albig and Schiemann, 2004; Albig and Schiemann, 2005).
Finally, it was determined whether expression of these putative angiogenic factors could effect the angiogenic sprouting of quiescent MB114 cells monolayers. MB114 cells expressing either GFP or various putative angiogenic agents were grown to confluency, and subsequently were overlaid with rat tail collagen matrices. Angiogenic sprouting by quiescent EC monolayers was stimulated by inclusion of 10% FBS and allowed to proceed for 5 days. The quantity of invading angiogenic sprouts was determined by manual counting under a light microscope.
Based on the findings described in the Examples above, the inventors hypothesized that MAGP-2 promotes angiogenesis by antagonizing Notch1 signaling. To test this hypothesis, it was first determined whether inhibiting Notch signaling in MB114 cells would enhance their angiogenic sprouting. In doing so, MB114 cells were transiently transfected with the Hes1-luciferase reporter gene (and pCMV-β-gal cDNA as control), and subsequently were treated overnight with or without the highly specific gamma-secretase inhibitor, DAPT (Sastre et al, 2001), which inhibits S3-mediated cleavage of Notch1 and, consequently, NICD-mediated induction of Hes1 expression. Afterward, luciferase and β-gal activities were determined. […] In this experiment, quiescent MB114 cell monolayers were overlaid with rat tail collagen matrices, and were induced to form angiogenic sprouts by addition of 10% FBS supplemented with or without DAPT (10 μM). Five days later the number of invading angiogenic spouts were quantified by manual counting on a light microscope. Based on these findings, the inventors conclude that Notch activation functions in mediating angiostasis in MB114 cells. […] Collectively, these findings indicate that Notch1 signaling antagonizes angiogenic sprouting in MB114 cells, and that downregulation of Notch1 signaling components is necessary for angiogenesis activation in MB114 cells.
Having shown that Notch1 signaling mediates angiostasis in MB114 cells, the inventors next asked whether MAGP-2 promotes angiogenesis in MB114 cells via its ability to antagonize Notch signaling. To do so, MAGP-2-expressing MB114 cells were engineered to constitutively express active Notch1 NICD fragment in an attempt to overcome the block of Notch processing mediated by MAGP-2. More particularly, GFP-, MAGP-2-, and MAGP-2/N1ICD-expressing MB114 cells were transiently transfected with pHes1-luciferase and pCMV-β-gal cDNAs. Luciferase and β-gal activities were determined 48 h post-transfection. As the inventors observed previously, MAGP-2 expression reduced Hes1-luciferase activity in MB114 cells (FIG. 5C), a reaction that was bypassed by co-expression of NICD in these cells (FIG. 5C). […] In this experiment, quiescent monolayers of GFP-, MAGP-2-, and MAGP-2/N1ICD-expressing MB114 cells were overlaid with rat tail collagen matrices and incubated in the absence or presence of 10% FBS for 5 days. Afterward, the number of invading angiogenic sprouts were determined by manual counting under a light microscope.

[2] = system: Hes1 promoter (Notch1 signaling); test: Hes1-driven luciferase reporter gene assay in MB114 cells; conditions: MB114 cells treated overnight with 10 μM
Method: as §1
MAGP-2 can interact physically with Notch1 and its ligand, Jagged-1 (Miyamoto et al, 2006; Nehring et al, 2005), resulting in the ectodomain shedding of both molecules from the cell surface. Notch signaling also plays an essential role in regulating normal vessel development and angiogenesis in mammals (Leong and Karsan, 2005; Shawber and Kitajewski, 2004). Given these two facts, the inventors hypothesized that MAGP-2 promotes angiogenesis by modulating Notch1 signaling. To test this hypothesis, first measured were changes in luciferase expression driven by a Hes1-luciferase reporter gene whose expression is induced by Notch1 activation (Iso et al, 2003). MB114 and HUVEC cells were transiently transfected either with pHes1-luciferase, pCMV-β-gal, and MAGP-2 cDNAs, or with pHes1-luciferase and pCMV-β-gal cDNAs and subsequently stimulated with rMAGP-2 (1 or 5 mg/ml). Afterward, luciferase and β-gal activities contained in detergent-solubilized cell extracts were measured. In addition, GFP- and MAGP-2-expressing MB114 cells were transiently transfected with pHes1-luciferase and pCMV-β-gal cDNAs, together with or without Jagged-1 cDNA as indicated. Afterward, luciferase and β-gal activities were measured as above.
To further investigate the impact of MAGP-2 on Notch1 processing and NICD accumulation, the inventors took advantage of recent findings showing that the ability of TGF-β to induce Hes1 promoter activity requires Smad3 to interact physically with NICD (Blokzijl et al, 2003), a reaction that is dispensable for canonical Smad3-mediated signaling stimulated by TGF-β (Blokzijl et al, 2003). It was therefore reasoned that the ability of MAGP-2 to inhibit NICD production in ECs would reduce the capacity of TGF-β to induce luciferase expression driven by the Hes1 promoter, but not that driven by the synthetic Smad2/3-binding element (SBE). GFP- and MAGP-2-expressing MB114 cells were transiently transfected with either pHes1- or pSBE-luciferase, both together with pCMV-β-gal as indicated in FIG. 4B. Afterward, the resulting transfectants were stimulated overnight with increasing concentrations of TGF-β1 (0-5 ng/ml).
Based on the findings described in the Examples above, the inventors hypothesized that MAGP-2 promotes angiogenesis by antagonizing Notch1 signaling. To test this hypothesis, it was first determined whether inhibiting Notch signaling in MB114 cells would enhance their angiogenic sprouting. […] Afterward, luciferase and β-gal activities were determined. […]

MB114 cells [3] = test: cell proliferation, [3H]thymidine incorporation assay; conditions: serum-starved MB114 cells stably expressing the transgene vs GFP; EGF 10 ng/ml, 24 h, 37° C.
Method: as §1
(§2) FIG. 1A show results from an experiment in which serum-starved MB114 cells, stably expressing either GFP or various putative angiogenic agents, were stimulated in the absence or presence of either bFGF (50 ng/ml) or EGF (10 ng/ml) for 24 h at 37° C. Differences in MB114 cell DNA synthesis was determined by measuring [^3H]thymidine incorporation into cellular DNA. […] In this experiment, invasion of MB114 cells expressing either GFP or various putative angiogenic agents through synthetic basement membranes was determined over 48 h using a modified Boyden-chamber assay.

MB114 cells [4] = test: cell invasion through Matrigel matrices, modified Boyden-chamber assay; conditions: MB114 cells stably expressing the transgene vs GFP; 48 h
Method: as §1, §2

Molecule | angiogenic sprouting of quiescent MB114 cell monolayers (MB114 cells [1]) | also measured
C[C@H](NC(=O)Cc1cc(F)cc(F)c1)C(=O)N[C@H](C(=O)OC(C)(C)C)c1ccccc1 [DAPT, reference compound] | – | number of invading angiogenic sprouts (MB114 cells [1]; MB114 monolayers, 10% FBS with 10 μM compound vs untreated): significantly more; Hes1 promoter activity (Hes1-luciferase) [2]: significantly inhibited
B1 | failed to significantly affect | proliferative response of MB114 cells to EGF ([3H]thymidine incorporation into cellular DNA) (MB114 cells [3]): significantly enhanced
B2 | failed to significantly affect | MB114 cell invasion through synthetic basement membranes (MB114 cells [4]): significantly induced
B3 | failed to significantly affect | –
B4 | significantly decreased | –
